Results taken from article PMC4503747, “The Gcn2 Regulator Yih1 Interacts with the Cyclin Dependent Kinase Cdc28 and Promotes Cell Cycle Progression through G2/M in Budding Yeast” (PLoS ONE, 2015).

Target: T1, GST-Yih1*H2 (E87A and D90A in helix H2 of the RWD domain) (S. cerevisiae, UniProt P25637 1-258, E87A | D90A)
T1 construct: Yih1, S. cerevisiae, with alanine substitutions of Glu-87 and Asp-90;; source: S. cerevisiae yih1Δ strain MSY-Y2, galactose-inducible promoter, in whole cell extract
T1 sequence (looked up): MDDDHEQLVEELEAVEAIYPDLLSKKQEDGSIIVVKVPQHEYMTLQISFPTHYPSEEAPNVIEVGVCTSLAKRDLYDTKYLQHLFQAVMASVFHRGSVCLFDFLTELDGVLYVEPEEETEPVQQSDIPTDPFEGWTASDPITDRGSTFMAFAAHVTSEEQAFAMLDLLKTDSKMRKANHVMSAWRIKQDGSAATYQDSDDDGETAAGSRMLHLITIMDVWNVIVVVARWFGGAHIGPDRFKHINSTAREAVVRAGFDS
Experiment: pull-down; in vivo GST pull-down: GST fusions overexpressed in yeast from a galactose-inducible promoter (yih1Δ strains; gcn1Δ strain H2556 for the fragments; also cells arrested in G1 with α-factor and released), WCE (1-2 mg) on glutathione beads, immunoblot for endogenous proteins
Conditions: partners not purified

B1: Cdc28 (endogenous, yeast whole cell extract) (natural protein)
chain: not shown
notes: Cdc28, cyclin-dependent kinase of S. cerevisiae, endogenous; In the extract Cdc28 may be in complexes with cyclins and other regulators; also called endogenous Cdc28; native Cdc28; source: endogenous, S. cerevisiae whole cell extract
fold increase of co-precipitated Cdc28 against wild type GST-Yih1: ~5 fold
